In patent KR20140095558A (dated 2014):

Molecular target: T1, BSA (bovine serum albumin) (bovine (송아지 혈청 알부민), UniProt P02769 25-607)
T1 construct: Negative control antigen of the phage ELISA; also called 송아지 혈청 알부민
Test: phage ELISA, 1% BSA coated, anti-M13 peroxidase, OD 492 nm

T1 sequence (P02769 25-607 limits assumed): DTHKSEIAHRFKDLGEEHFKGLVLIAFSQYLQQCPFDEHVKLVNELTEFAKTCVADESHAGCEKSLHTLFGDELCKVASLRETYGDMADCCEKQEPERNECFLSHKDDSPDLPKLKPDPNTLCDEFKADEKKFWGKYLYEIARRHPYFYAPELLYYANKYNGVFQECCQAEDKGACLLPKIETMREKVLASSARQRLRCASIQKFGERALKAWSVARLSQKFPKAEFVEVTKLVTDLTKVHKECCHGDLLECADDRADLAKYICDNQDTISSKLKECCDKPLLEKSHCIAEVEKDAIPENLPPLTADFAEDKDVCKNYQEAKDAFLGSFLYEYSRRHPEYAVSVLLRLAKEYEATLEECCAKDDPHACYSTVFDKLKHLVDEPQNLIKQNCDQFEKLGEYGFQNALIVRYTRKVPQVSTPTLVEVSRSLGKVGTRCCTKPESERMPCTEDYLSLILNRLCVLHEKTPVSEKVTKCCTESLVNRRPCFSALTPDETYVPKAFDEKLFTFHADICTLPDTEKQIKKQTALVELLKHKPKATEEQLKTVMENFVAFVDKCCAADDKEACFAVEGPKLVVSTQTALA

B1: SC06-079 (scFv)
scFv: EVQLVESGGGLVQPGGSLRLSCAASGFTFSSYAMSWVRQAPGKGLEWVSAISGTGGSAYYADSVKGRFTISRDNSKNTVYLQMNSLRAEDTAVYYCAKGHSSGTNWGQGTLVTVSSGTGGSGGTGSGTGGSTSYVLTQPPSASGTPGQRVTISCSGSSSNIGSNFVYWYQQLPGTAPKLLIYRNNQRPSGVPDRFSGSKSGTSASLAISGLRSEDEADYYCAAWDDSLSGVLFGGGTQLTVL
- binding result: no binding

B2: SC06-402 (scFv)
scFv: QVQLVQSGAEVKKPGESLKISCKGSGYSFTSYWIGWVRQMPGKGLEWMGIIYPGDSDTRYSPSFQGQVTISADKSISTAYLQWSSLKASDTAMYYCARWGGVCSSTSCPNRDAFDIWGQGTMVTVSSGTGGSGGTGSGTGGSTQSALTQPRSVSGSPGQSVTISCTGTSSDVGGYNYVSWYQQHPGKAPKLMIYDVSNRPSGVSNRFSGSKSGNTASLTISGLQAEDEAEFHCSSYRSSGASPVVFGGGTKLTVL
- binding result: no binding

B3: SC06-071 (scFv)
scFv: EVQLVESGGGVVQPGRSLRLSCAASGFTFSSYGMHWVRQAPGKGLEWVAMIWSDGSNKYYADSVKGRFTISRDNSKNTLYLQMNSLRVEDTAVYYCASNYGSGSYWGGFDYWGQGTLVTVSSGTGGSGGTGSGTGGSTQSALTQPASVSGSPGQSITISCTGTSSDVGGYNLVSWYQQHPGKAPKLMIYEGSKRPSGVSNRFFGSKSGDTASLTISGLQAEDEADYYCSSYTTSSTHVFGTGTKVTVL
- binding result: no binding

B4: SC05-157 (scFv)
scFv: EVQLVESGAEVKKPGESLKISCKGSGYSFTNYWIGWVRQMPGKGLEWMGIVYPGDSDTRYSPSFQGQVTISADKSISTAYLQWSSLKASDTAVYYCARRMAVAGSDAFDIWGQGTMVTVSSGTGGSGGTGSGTGGSTQAVLTQPSSASGTPGQTVTISCSGSTSNIGSHNVNWYQHLPGTAPKLLIYINNKRPSGVPDRFSGSKSGSSASLAISGLQSEDEADYYCAAWDDSLRRPVFGGGTQLTVL
- binding result: no binding

B5: SC06-198 (scFv)
scFv: QLQLQESGPGLVKPSETLSLTCAVSGYSITSGYYWGWVRQPPGKGLEWIGSIYHTGSTYYNPSLKSRVTISVDTSKNQFSLKLNSLTAADTAVYFCASQSPAFDFWGQGTMVTVSSGTGGSGGTGSGTGGSTQSVLTQPPSVSGAPGQRVTISCTGSSSNIGTGYDVHWYQQLPGTAPKLLIYGNNNRPSGVPDRFSGSKSGTSASLAITGLQAEDEADYYCATWDDSLNGWVFGGGTKLTVP
- binding result: no binding

B6: SC06-388 (scFv)
scFv: EVQLVETGAEVKKPGESLRISCKGSGYSFTSYWIAWVRQMPGKGLEWMGVIYPGDSDARYSPSFQGQVTMSVDKSISTAYLQWSSLKASDTAMYYCAKLRSKNTGLDYWGQGTLVTVSSGTGGSGGTGSGTGGSTQSALTQPPSASGSPGQSVTISCTGTSSDVGGYNFVSWYQQHPGKAPKLMIYEVSNRPSGVPDRFSGSKSGNTASLTVSGLQAEDEADYYCSSYAGNNNLAFGGGTQLTVL
- binding result: no binding

B7: SC06-242 (scFv)
scFv: EVQLVESGPGLVKPSETLSLTCTVSGGSISSYYWSWIRQPPGKGLEWIGYIYYTGTTNYNPSLNSRVTISADTSKNQFSLKLSSVTAADTAVYYCARGGQTAGVWGKGTTVTVSSGTGGSGGTGSGTGGSTQSVLTQPPSVSVAPGQTARITCGGYNIGRKSVHWYQQKPGLAPVLVVYDNSDRPSGIPARFSGSNSGNTATLTISGTQAMDEADYYCQAWDRGTAVFGTGTKVTVL
- binding result: no binding

B8: SC06-241 (scFv)
scFv: EVQLVESGGGLVQPGRSLRLSCAASGFTFRSYAMYWVRQAPGKGLEWLALISHDASKMFYADSVKGRFTISRDNSKNTLSLQMNSLTIEDTAVYYCVRERTGYYGAYWGQGTLVTVSSGTGGSGGTGSGTGGSTDIQMTQSPSSLSASVGDRVTLTCRASQGIGTWLAWYQQKPGKAPKLLIYSASSLQSGVPSRFSGSGSGTDFTLSISNLQPEDFATYYCQQANSFPITFGQGTRLEIK
- binding result: no binding

B9: SC06-092 (scFv)
scFv: EVQLVESGGGLVQPGRSLRLSCTGSGFTFGDYAMSWFRQAPGKGLEWVGFIRNKAYGGTAEYAASVKDRFIISRDDSKSIAYLQMNSLKTEDTAVYYCVRREYDTGWLDYWGQGTLVTVSSGTGGSGGTGSGTGGSTQSALTQPPSASGSPGQSVTISCTGTSSDVGGYNYVSWYQRHPGKAPKLMIYDVTDRPSGVSNRFSGSKSGNTASLTISGLQAEDEADYYCSSYTSSSTSAVFGGGTKLTVL
- binding result: no binding

B10: SC06-087 (scFv)
scFv: EVQLVESGGGLVKPGGSLRLSCAASGFTFSSNSMNWVRQAPGKGLEWVSFISSSSTYIYYADSVKGRFTISRDNAKNSLYLQMNSLRAEDTAVYYCARESAAGISYDAFDIWGQGTMVTVSSGTGGSGGTGSGTGGSTQSALTQPASVSGSPGQSITISCTGTSSDVGGYKYVSWYQQHPGKAPKLMIYEVSNRPSGVSNRFSGSKSGSTASLTISGLQAEDEADYYCSSYTSSSTLGVFGTGTKVTVL
- binding result: no binding

B11: SC06-191 (scFv)
scFv: EVQLVESGGGVVQPGRSLRLSCVASEFTFSNYGMHWVRQAPGKGLEWVAVIWYDGSNEDYADSVKGRFTISRDNSKNTVYLHMNSLRAEDTAVYFCTRGQYSSTWFLDYWGQGTLVTVSSGTGGSGGTGSGTGGSTDIQLTQSPSTLSASVGDRVTITCRASQSISSWLAWYQQKPGKAPKLLIYKASSLETGVPSRFSGSGSGTDFTLTISSLQPEDFATYYCQQANSFPLTFGGGTKVDIK
- binding result: no binding

B12: SC06-415 (scFv)
scFv: EVQLVESGGGLVQPGRSLRLSCAASGFTFDDYAMHWVRQAPGKGLEWVSGISWNSGSIGYADSVKGRFTISRDNAKNSLYLQMNSLRAEDSAVYYCARGGQRFDFWGQGTLVTVSSGTGGSGGTGSGTGGSTQSALTQPPSASGSPGQSVTISCTGTSSDVGGYNYVSWYQQLPGKAPKLLIYDVNNRPSGVSNRFSGSKSGNTASLTISGLQAEDEAEYYCGSSVGSRLRIFGGGTKLTVL
- binding result: no binding

B13: SC06-077 (scFv)
scFv: QVQLVQSGAEVKKPGSSVKVSCKASGGTFSSYAISWVRQAPGQGLEWMGGIIPIFGTANYAQKFQGRVTITADESTSTAYMELSSLRSEDTAVYYCAREGGVGPAFDIWGQGTMVTVSSGTGGSGGTGSGTGGSTDIQMTQSPDSLAVSLGERATINCKSSQSVLHNSNNKNYLAWYQQKPGQPPKLLIYWASTRESGVPDRFSGSGSGTDFTLTISSLQAEDVAVYYCQQYYGSPYTFGQGTKLEIK
- binding result: no binding

B14: SC06-252 (scFv)
scFv: EVQLVETGGGLVQPGGSLRLSCAASGLTFSSYAMSWVRQAPGKGLEWVSALSGSTTFYADSVKGRFTISRDNAKNTLYLQMNSLRAEDTAVYYCARGNYYGMDVWGQGTTVTVSSGTGGSGGTGSGTGGSTSYVLTQPPSASGTPGQRVTISCSGSSSNIGKFYVYWYQQFPGAAPKLLIYSNNQRPSGVPDRFSGSKSGTSASLAISGLQSEDEADYYCAAWDGSLNGYVFGTGTKVTVL
- binding result: no binding

B15: SC05-159 (scFv)
scFv: QVQLVQSGAEVKKPGATVKISCKVSGYTFTDYYMHWVQQAPGKGLEWMGLVDPEDGETIYAEKFQGRVTITADTSTDTAYMELSSLRSDDTAVYYCARAEVMTTINNWYFDLWGRGTLVTVSSGTGGSGGTGSGTGGSTSYVLTQPPSASGTPGQRVTISCSGSSSNIGSNNVSWYQQLPGTAPKLLIYSNNQRPSGVPDRFSGSKSGTSASLAISGLQSEDEADYYCAAWDDSLNGWVFGGGTKLTVL
- binding result: no binding

B16: SC06-389 (scFv)
scFv: QVQLVQSGAEVKKPGESLKISCKGSGYSFSTYWIGWVRQMPGKGLEWMGIIYPGDSDTRYSPSFQGQVTISADKSISTAHLQWSSLKASDTAMYYCARPGPRGYNHGFDYWGQGTLVTVSSGTGGSGGTGSGTGGSTSSELTQDPAESVALGQTVKITCQGDSLRRYYASWYQQKPGQAPVLVIYGKNNRPSGIPDRFSGSRSGNTASLTITGAQAEDEAVYYCNSRDSSGNSVVFGGGTKLTVL
- binding result: no binding

B17: SC06-078 (scFv)
scFv: EVQLVESGAEVKKPGSSVKVSCKASGGTFSSYAISWVRQAPGQGLEWMGGIIPIFGTANYAQKFQGKVTITADESTSTAYMELSSLRSEDTAVYYCARLSPRYYGMDVWGQGTTVTVSSGTGGSGGTGSGTGGSTQSALTQPRSVSGSPGQSVTISCTGTSSDVGGYNYVSWYQQHPGKAPKLMIYGGSERPSGVSNRFSGSKSGNTASLTISGVQAEDEADYYCSSYTSSGTLLFGGGTQLTVL
- binding result: no binding

B18: SC06-246 (scFv)
scFv: EVQLVESGGGLIQPGGSLRLSCAASGFTVSSDFMTWVRQAPGRGLEWVSLIYSGGKTNYADSVKGRFTISRDNSRNTLYLQMNSLRAEDTAVYYCARSVCSTISCSKLDDWGQGTLVTVSSGTGGSGGTGSGTGGSTQAVLTQPSSVSVAPGQTARITCGGNNIGRKSVHWYQQKPGLAPVLVVNDNSDRPSGIPARFSGSNSGNTATLTISRVEAGDEADYYCHVWGSSRDHYVFGTGTKVTVL
- binding result: no binding

B19: SC06-409 (scFv)
scFv: EVQLVQSGAEVKKPGESLKISCKGSGYSFTNYWIGWVRQMPGKGLEWMGIIYPGDSDTRYSPSFQGQVTISADKSISTAYLQWSSLKASDTAMYYCARHTQNKNGMNTFDIWGQGTMVTVSSGTGGSGGTGSGTGGSTQSALTQPPSASGSPGQSVTISCTGTSSDIGGYNYVSWYQQHPGKAPKLMIYEVSNRPPGVSNRFSGSKSGNTASLTISGLQAEDEADYYCSSYSTTTTRVIFGGGTKLTVL
- binding result: no binding

B20: SC06-089 (scFv)
scFv: EVQLVETGGGLVQPGGSLRLSCAASGFTFSSYSMNWVRQAPGKGLEWVSFISSSSSTIYYADSVKGRFTIARDNAKNSLYLQMNSLRDEDTAVYYCARPVGTGISLFHAFDIWGQGTMVTVSSGTGGSGGTGSGTGGSTQSVLTQPPSVSVAPGQTARITCGGNNIGSKYVHWYQQKPGQAPVLVVYDDSDRPSGIPERFSGSNSGNTATLTISRVEAGDEADFYCQVWDGSSDPVVFGGGTKLTVL
- binding result: no binding
